Target: T1, Human TIM-3 Human Fc tagged protein (human, fluorescently labeled with HiLyte Fluor 555 (sites not given))
T1 construct: Bought construct; also called TIM-3 protein tagged with human Fc; ACROBiosystems catalog no: TM3-H5258
Test: capture slide probed with labeled TIM-3-Fc;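 further: IgG from single CD138-enriched plasma cells, isolated from lymphocytes, immobilized on a derivatized glass slide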

Binder | binding result
SCT-Fa088 (antibody, V domains shown, murine IgG) VH: QIQLQQSGPELVKPGASVKISCKASGYTFTDYYINWVKQRPGQGLEWIGWIYPGSGNTKYNEKFKGKATLTVDTSSSTAYMQLSSLTSEDSAVYFCARAYDYGFAYWGQGTLVTVSA VL: SIVMTQTPKFLLVSAGDRVTITCKASQSVSHGVTWYQQKPGQSPKLLISYASNRYTGVPDRFTGSGYGTDFTFTISTVQAEDLAVYFCQQDYSSPYTFGGGTKLEIK | binds
SCT-Fa086 (antibody, V domains shown, murine IgG) VH: QIQLQQSGPELVKPGASVKISCKASGYTFTDYYINWVKQRPGQGLEWIGWIYPGSGNTKYNEKFKGKATLTVDTSSNTAYMQLSSLTSEDSAVYFCARAYDYGFPYWGQGTLVTVSA VL: SIVMTQTPKFLLVSAGDRVTITCKASQSMNNGVTWYQQKPGQSPKLLISYASNRYTGVPDRFTGSGYGTDFTFTISAVQAEDLAVYFCQQDYSSPYTFGGGTKLEIK | binds
SCT-Fa077 (antibody, V domains shown, murine IgG) VH: EVRLVESEGGLVQPGSSMKLSCTASGFTFSDYYMAWVRQVPEKGLEWVANINYDGTNTYYLDSLKSRFIISRDNAKNILYLQMSGLKSEDTATYYCGRGIYYYGRSHAMDYWGQGTSVTVSS VL: DILMTQSPSSMSVSLGDTVSITCHASQGINNNVGWLQQKPGKSFKGLIYHGTNLEDGVPSRFSGSGSGADYSLTIYSLESEDFADYYCVQYDQFPPTFGGGTKLEIK | binds
SCT-Fa092 (antibody, V domains shown, murine IgG) VH: QIQLVQSGPEMKKPGETVKISCKASGYTFRTYGMSWVKQAPGKGLEWMGWINTYSGEPTYADDFKGRFAFSLETSANTAYLQINNLKNEDTATFFCARAQHYFDWWGQGTTLTVSS VL: DIKMTQSPSSMYASLGERVTITCKASQDIDSYLNWFQQKPGKSPKTLIYRATRLVDGVPSRFSGSGSGQDYSLTISSLEYEDMGIYYCLQYDEFPYTFGGGTKLEIK | binds

Now from value to binder:

binding result | Binder
binds | SCT-Fa087 (antibody, V domains shown, murine IgG) VH: QIQLQQSGPELVKPGASVKISCKASGYTFTDYYINWVKQRPGQGLEWIGWIYPGSGNTKYNEKFKGKATLTVDTSSSTAYMHLSSLTSEDSAVYFCARAYDYGFAYWGQGTLVTVSA VL: SIVMTQTPKFLLVSAGDRVTITCKASQSVSYGVTWYQQKPGQSPKLLISYSSNRYTGVPDRFTGSGSGTDFTFTISTVQAEDLAVYFCQQDYSSPYTFGGGTKLEIK
binds | SCT-Fa094 (antibody, V domains shown, murine IgG) VH: QVLLQQPGAELVRPGTSVKLSCKASGYTFTNFWMHWVKQRPGQGLEWIGVIDPSDISTHYNQNFKGKAILTVDTSSSSAYMQLSSLTSEDSAVYYCARNDYDGGYFDYWGQGTTLTVSS VL: DVVMTQTPLSLPVSLGDQASISCRSSQSLVHGNGNTYLHWYLQKPGQSPKLLIYTVSNRFSGVPDRFSGSGSGTDFTLKISRVEAEDLGVYFCSQTIHAPWTFGGGTKLEIK
binds | SCT-Fa090 (antibody, V domains shown, murine IgG) VH: QIQLVQSGPEMKKPGETVKISCKASGYIFRTYGMSWVKQAPGKGLEWMGWINTYSGEPTYADDFKGRFAFSLETSANTAYLQINNLKNEDTATFFCARAQHYFDWWGQGTTLTVSS VL: DIKMTQSPSSMYASLGERVTITCKASQDIDSYLNWFQQKPGKSPKTLIYRATRLVDGVPSRFSGSGSGQDYSLTISSLEYEDMGIYYCLQYDEFPYTFGGGTKLEIK
binds | SCT-Fa091 (antibody, V domains shown, murine IgG) VH: QIQLVQSGPEMKKPGETVKISCKASGYTFRTYGMSWVKQAPGKGLEWMGWINTYSGEPTYADDFKGRFAFSLETSANTAYLQINNLKNEDTATFFCARAQHYFDWWGQGTTLTVSS VL: DIKMTQSPSSMYASLGERVTITCKASQDIDRYLNWFQQKPGKSPKTLIYRATRLVDGVPSRFSGSGSGQDYSLTISSLEYEDMGIYYCLQYDEFPYTFGGGTKLEIK
binds | SCT-Fa095 (antibody, V domains shown, murine IgG) VH: QVQLKESGPGLVAPSQSLSITCTVSGFSLTSSVISWVRQPPGKGLEWLGIIWAGGDTNYNSALKSRLSISKDNSKSQVFLKMNSLQTDDTARYYCARNLNAMDYWGQGTSVTVSS VL: DVLMTQTPLSLTVSLGDQASISCRSSQSIVHSNGNTYLEWFLQKPGQSPKLLIYKVSNRFSGVPDRFSGSGSGTDFTLKISRVEAEDLGVYYCFQGSHVPWTFGGGTKLEIK
